Results taken from article PMC7321962.
Changes are numbered by the printed parent chain.

How the values were obtained:
[1] = target: T1, XPG-FLAG (full-length WT) (Homo sapiens, UniProt P28715 1-1186); assay: EMSA
T1 sequence: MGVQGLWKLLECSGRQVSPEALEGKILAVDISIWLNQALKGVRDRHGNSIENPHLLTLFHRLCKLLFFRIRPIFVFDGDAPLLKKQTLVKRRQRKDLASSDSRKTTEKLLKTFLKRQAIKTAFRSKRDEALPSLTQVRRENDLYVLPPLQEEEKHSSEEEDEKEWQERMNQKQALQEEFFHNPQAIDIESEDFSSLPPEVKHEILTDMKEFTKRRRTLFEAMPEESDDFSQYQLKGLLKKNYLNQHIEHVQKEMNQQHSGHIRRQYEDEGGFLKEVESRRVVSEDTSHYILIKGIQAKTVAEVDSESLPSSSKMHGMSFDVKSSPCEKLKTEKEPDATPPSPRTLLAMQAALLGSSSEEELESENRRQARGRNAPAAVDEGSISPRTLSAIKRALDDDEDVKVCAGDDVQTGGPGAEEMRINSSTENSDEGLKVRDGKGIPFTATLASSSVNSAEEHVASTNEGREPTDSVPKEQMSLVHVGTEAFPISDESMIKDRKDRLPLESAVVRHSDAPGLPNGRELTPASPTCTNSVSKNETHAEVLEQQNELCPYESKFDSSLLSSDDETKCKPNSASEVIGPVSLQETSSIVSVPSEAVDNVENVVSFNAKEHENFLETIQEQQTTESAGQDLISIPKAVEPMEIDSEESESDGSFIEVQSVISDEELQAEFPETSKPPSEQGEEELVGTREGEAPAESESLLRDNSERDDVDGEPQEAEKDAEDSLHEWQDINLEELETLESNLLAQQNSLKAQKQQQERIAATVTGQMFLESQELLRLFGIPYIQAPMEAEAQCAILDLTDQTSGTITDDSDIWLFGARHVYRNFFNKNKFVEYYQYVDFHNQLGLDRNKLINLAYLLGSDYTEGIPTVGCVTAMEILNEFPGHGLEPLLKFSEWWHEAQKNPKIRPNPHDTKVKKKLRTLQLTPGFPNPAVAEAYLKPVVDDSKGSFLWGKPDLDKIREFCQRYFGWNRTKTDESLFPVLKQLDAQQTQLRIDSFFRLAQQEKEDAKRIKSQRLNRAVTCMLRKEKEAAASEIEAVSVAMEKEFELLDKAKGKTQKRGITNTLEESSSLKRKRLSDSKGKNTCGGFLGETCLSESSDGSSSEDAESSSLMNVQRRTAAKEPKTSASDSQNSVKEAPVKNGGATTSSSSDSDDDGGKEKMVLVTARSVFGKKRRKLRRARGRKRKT

XPG FF67,68AA = target: T2, XPG FF67,68AA (Homo sapiens, UniProt P28715 1-1186, F67A;F68A); assay: EMSA
T2 sequence: T1 sequence with F67A, F68A

B1: HP15T/C 15-nt bubble DNA (mixed)
DNA 1: CGCGAAGCGGGGCAGACAACGTGGCGCTGTTTTTTTTTTTTTTTGTGTCCTAGCACAGCGTATG
DNA 2: CGCGAAGCGCATACGCTGTGCTAGGACACCCCCCCCCCCCCCCCCAGCGCCACGTTGTCTGCCC
B1: binds [1]; binds (XPG FF67,68AA).
